Measured values reported in US20200256849A1.

Tests used:
[1] = target: MART1 comPACT (UniProt P61769); assay: replicate of PE/APC comPACT tetramer dual staining, FACS
[2] = target: MART1 comPACT (UniProt P61769); assay: PE/APC comPACT tetramer dual staining, FACS
[3] = target: MART1 comPACT (UniProt P61769); assay: dual staining with tetramer, trimer+DNA, dextramer and dextramer+DNA, FACS

Chain of UniProt P61769 (P61769 21-119): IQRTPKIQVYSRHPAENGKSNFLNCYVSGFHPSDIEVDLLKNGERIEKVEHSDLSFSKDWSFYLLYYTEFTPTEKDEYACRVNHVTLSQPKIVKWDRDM

Q: What does the source list for TCR against a MART1 antigen (F5)?
A: tetramer staining (% of T cells) [1]: > 99%; tetramer staining (% of T cells) [2]: > 99%; % of gene edited cells stained [3]: > 98%
